Assay results: the supplement of paper PMC9170038

Tested on: MS2 coat protein
Experiment: apparent KD of MS2 coat protein; designed switch direction (-1 OFF switch, 1 ON switch): -1; higher = weaker reporter binding
Method in brief: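 The buffer was Tris-HCl pH 7.5 with KCl, MgCl2, BSA, DTT, tRNA and Tween-20. In it, SNAP-549-labelled MS2 coat protein was titrated in doubling steps from 0.7 or 1.5 nM to 3 µM over chip-bound RNA switches transcribed by stalled E. coli RNA polymerase on Illumina chips. Apparent KD is the per-design median over clusters of curve fits to normalised fluorescence.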

[1] = input ligand: microRNA oligo, concentration not stated
[2] = Eterna round: R95, input ligand: FMN 200 uM
[3] = Eterna round: R95, input ligand: microRNA oligo, concentration not stated
[4] = Eterna round: R95, input ligand: none

| Sequence | apparent KD of MS2 coat protein (input ligand: FMN 200 uM) [nM] | apparent KD of MS2 coat protein (input ligand: none) [nM] | apparent KD of MS2 coat protein [1] [nM] | apparent KD of MS2 coat protein [2] [nM] | apparent KD of MS2 coat protein [3] [nM] | apparent KD of MS2 coat protein [4] [nM] |
| --- | --- | --- | --- | --- | --- | --- |
| UGAGCUUCAGGAUAUAUGUGGCGACCGUGAGGUCGAAGGUUACAUGAGGAUCACCCAUGUAGAAGGGAAGUUCU [Mat - Exclusion 2 - JL Mod - D19] (Eterna round: R97, puzzle: Exclusion 2) | 181 | 62.2 |  |  |  |  |
| ACAUUGUAUGUGAGGAUAUCGAUGGGAUGGGUUGUCGAGAAGGCACAUGAGGAUCACCCAUGUAAGGGACAGCA [JR_BMEx4_Sub029] (Eterna round: R97, puzzle: Brourd's mod of Exclusion 4) | 295 | 83.1 |  |  |  |  |
| ACGAUGAUCGAAAAGUGUAAACUAACAUGAGGAUCACCCAUGUAGGAUAUGGCUACGAAAAGUAGUCAGAAGGGCAUGUCAUCA [3 Av mod - 2] (Eterna round: R96, puzzle: Exclusion NG 3) | 24 | 20.3 | 13.2 |  |  |  |
| AGAUGUUAAGAGGAUAUCAGCCAAAACCGGCAGUGAGAAGGCUUGACAUGAGGAUCACCCAUGUUUUGCGGUAA [Islalaus] (Eterna round: R97, puzzle: Exclusion 6) | 397 | 38.6 |  |  |  |  |
| UCCAAGUUUGUAGGAUAUACUCUCCUUUGGAGAGUAGAAGGACAUGAGGAUCACCCAUGUUGUAUAAAUUUGGGAUGUUCCUCG [random3] (Eterna round: R96, puzzle: Exclusion NG 1) | 122 | 91.8 | 51.3 |  |  |  |
| GCUAGUCAUGUCAGGAUAUGCAGAUCCUUGGAUCUGCAGAAGGGACAUGAGGAUCACCCAUGUGCCUAACUAGC [Mat - Exclusion 4 - JL Mod - D14] (Eterna round: R97, puzzle: Brourd's mod of Exclusion 4) | 479 | 41.6 |  |  |  |  |
| UUUUAGUCAGGAUAUACAUGAGGAUCACCCAUGUAAAAUUUUAAUUUAAUUUUAAGGUGUAGAAGGGACAUUUU [Ex3 #5] (Eterna round: R97, puzzle: Exclusion 3) | 24.5 | 27.6 |  |  |  |  |
| AGUACGAUGCGUGCUGACAUGCGUCGUGCAGCAGGUGAUACAUGAGGAUCACCCAUGUCCUCAUUUGCUCGUCUUGA [Mat - Sensor v3 - Turn-off var 2 - D19] (puzzle: Sensor v3, turn-off variant 2) |  |  |  | 28.5 | 499 | 28.4 |
| CUCCUCAUGGCGCCUAAACACAUGAGGAUCACCCAUGUACAGGCUUUUUGCCGUCUUAUAAUAAAACCGAGGAGGCG [Atrelele] (puzzle: Sensor v3, turn-off variant 1) |  |  |  | 21 | 146 | 23.6 |
| AAUUUACAUGAGGAUCACCCAUGUGAGGAUAUAUGUAAACAAUUUUUAUUCAUCAAACAUAGAAGGCGCGUGAU [JR_Exc1_Sub044] (Eterna round: R97, puzzle: Exclusion 1) | 41.3 | 42.6 |  |  |  |  |
| GUCCGACAUGAGGAUCACCCAUGUGAGGAUAUGCGAUUAGCUGCUAGGUAGUUAGUAUGUAGAAGGCGCAUGAA [EX1 #76] (Eterna round: R97, puzzle: Exclusion 1) | 21.9 | 24.5 |  |  |  |  |
| UGCUAGUCAGGAUAUACGAACAUGUCAAAAGACGUGAAGGGACAUGAGGAUCACCCAUGUAGAAGGGACUAGCA [salish99_ex2_r3_005] (puzzle: Exclusion 2) |  |  |  | 158 | 27.1 | 23.9 |
| CAUGAUCUUCGGAUCAUGUACAUGAGGAUCACCCAUGUGACGAGUAUAUCUUCAAACAAGCUUUUUGCUCGUCUUAU [Sensor v3 - Turn-off variant 1 - 23] (puzzle: Sensor v3, turn-off variant 1) |  |  |  | 41.6 | 49.8 | 41.6 |
| UAAUGCAGGUAAAGAUUCUACAUGAGGAUCACCCAUGUGCUCGUCUUAUAAAGUACUAUCACGAAAGUGAUAGUACA [Mat - Sensor v3 - turn-off var 1 - Eli Mod - D101] (puzzle: Sensor v3, turn-off variant 1) |  |  |  | 27.6 | 220 | 24.8 |
| AUCAUGGGAGGAUAUCACCUAUGUUACAUGAGGAUCACCCAUGUGAGACUAAAUGACUGCUGAGAAGGCUCAACGC [Eternabot (Original) Solution 25] (Eterna round: R97, puzzle: Exclusion 5) | 205 | 234 |  |  |  |  |
| ACAAGACAUGAGGAUCACCCAUGUGGUCGGAUGUCAAAGACCGAGGAUAUCAGCGACUGCGCCGCUGAGAAGGCGGAUGGUGCU [Telaed] (Eterna round: R96, puzzle: Exclusion NG 3) | 1260 | 652 | 476 |  |  |  |
